This is an account of results in patent publication US10808017B2, “Ubiquitin variants and uses therof as 53BP1 inhibitors” (The Governing Council of the University of Toronto, priority 2016, dated 2020).

One assay deals with T1, RBMXL1 (Homo sapiens, UniProt Q96E39).
T1 construct: endogenous in cells; host or cells: HEK293 Flp-In/T-REx cells
Briefly: Flag IP-MS of i53/i53-DM baits: prey RBMXL1. As to conditions: 293T Flp-In/T-Rex extracts, LC-MS/MS, one column per replicate IP. In kind it is binding. The procedure:
Following immunoprecipitation of Flag-tagged i53 and i-53-DM from HEK293 Flp-In/T-REx cells, peptides were identified using LC-MS/MS. Proteins were digested in solution with trypsin (Sigma, T7575-1KT) and dried to completeness. For LC-MS/MS analysis, peptides were reconstituted in 5% formic acid and loaded onto a 12-15 cm fused silica column with pulled tip packed in-house with 3.5 μm Zorbax C18 (Agilent Technologies, Calif., USA).
i53 and i53-DM precipitates were analyzed using an LTQ (Thermo Scientific) coupled to an Agilent 1100 Series HPLC (Agilent Technologies). Peptides were eluted from the column using a 90 min period cycle with a linear gradient from 0% to 40% ACN in 0.1% formic acid. Tandem MS spectra were acquired in a data-dependent mode for the top 5 (LTQ) most abundant ions using collision-induced dissociation. Acquired spectra were searched against the human Refseq_V53 database using Mascot (Matrix Science).
293T Flp-In/T-Rex cell lines were generated that expressed Flag-tagged i53 or i53-DM under the control of a tetracycline-inducible promoter as previously described. Nine IP-MS experiments were analyzed (3 biological replicate IPs each for control i53- and i53-DM expressing cell lines). The interacting proteins were identified by MASCOT to identify high-confidence interactors for i53. […]

The subject of assay [1] is BRCA1-deficient RPE1-hTERT cells. Briefly: Olaparib sensitivity assay. In kind it is cell-based. The following applies: viral delivery of HA-tagged i53; compared to genetic deletion of 53BP1; Trypan blue viable count. The text has this: FIG. 9 Expression of i53 suppresses PARP inhibitor sensitivity of BRCA1-deficience cells. FIG. 9A, An isogenic set of cell lines derived from RPE 1-hTERT cells deleted for the gene coding for p53 (TP53Δ) containing either no further mutations (WT) or null mutations in BRCA1 (BRCA1Δ) or 53BP1 (53BP1Δ) alone or in combination, as indicated. These cell lines were transduced either with an empty virus (EV) or with lentiviruses that express HA-tagged i53 or its DM mutant. The virus also expressed GFP from an IRES. After sorting for GFP cells the viability of cells following olaparib treatment for […] was monitored by trypan blue exclusion. Data is presented as the mean +/− s.d. (N=3). FIG. 9B , Whole-cell extracts from the isogenic sets of RPE1-hTERT TP53Δ cells were separated by SDS page and probed by immunoblotting with the indicated antibodies. FIG. 9C , Expression of the HA-tagged Ubvs in the indicated RPE1-hTERT TP53Δ cell lines was determined by anti-HA immunoprecipitation (IP) followed by immunoblotting.
RPE1 hTERT cells were obtained from ATTC and maintained in DMEM +10% FCS. […]
Cells were seeded at a density of 20,000 cells/well in 6-well plates in the presence of olaparib at day 0. […] At day 6, cells were collected by trypsinization and viable cell count was determined by Trypan blue exclusion using an automated cell counter (Vi-CELL, Beckman Coulter).

T1 sequence (Q96E39 whole entry): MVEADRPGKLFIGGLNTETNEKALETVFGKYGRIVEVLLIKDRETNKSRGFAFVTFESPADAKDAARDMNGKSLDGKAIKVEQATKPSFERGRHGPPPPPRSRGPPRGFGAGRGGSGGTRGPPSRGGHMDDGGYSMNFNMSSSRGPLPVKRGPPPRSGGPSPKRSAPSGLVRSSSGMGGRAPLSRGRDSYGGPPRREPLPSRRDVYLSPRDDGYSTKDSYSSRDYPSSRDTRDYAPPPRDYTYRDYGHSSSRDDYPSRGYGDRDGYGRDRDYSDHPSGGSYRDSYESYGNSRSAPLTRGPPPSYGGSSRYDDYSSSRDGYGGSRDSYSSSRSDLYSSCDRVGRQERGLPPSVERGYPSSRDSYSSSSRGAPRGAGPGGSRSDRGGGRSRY

Consider “i53-DM: 53BP1-binding deficient mutant of i53 (P69L, L70V)”, for which, in the assay with RBMXL1, the “Total peptides, RBMXL1” value came out at 3.
Consider “i53: UbvG08 with C-terminal di-glycine removed and I44A mutation; genetically encoded inhibitor of 53BP1”, for which, in assay [1], the “Alleviation of PARP inhibitor (olaparib) sensitivity” value was “only partially alleviated”.
